Experimental data: the supplement of paper PMC11246515
± gives the standard deviation of the averaged measurements.

Assay: total protein half-life in vivo (active degradation + dilution); higher = more stable protein
[1] = wild type E. coli NCM3722, growth: C-lim chemostat, doubling time 3 h
[2] = wild type E. coli NCM3722, growth: C-lim chemostat, doubling time 12 h
[3] = E. coli NCM3722 delta-clpP delta-lon delta-hslV, growth: N-lim chemostat, doubling time 6 h
[4] = E. coli NCM3722 delta-clpP, growth: N-lim chemostat, doubling time 6 h
[5] = E. coli NCM3722 delta-hslV, growth: N-lim chemostat, doubling time 6 h
[6] = E. coli NCM3722 delta-lon, growth: N-lim chemostat, doubling time 6 h
[7] = E. coli NCM3722 delta-smpB, growth: N-lim chemostat, doubling time 6 h
[8] = wild type E. coli NCM3722, growth: C-lim chemostat, doubling time 6 h
[9] = wild type E. coli NCM3722, growth: N-lim chemostat, doubling time 6 h
[10] = wild type E. coli NCM3722, growth: N-lim chemostat, doubling time 12 h
[11] = wild type E. coli NCM3722, growth: P-lim chemostat, doubling time 6 h
[12] = wild type E. coli NCM3722, growth: P-lim chemostat, doubling time 12 h

Sequence	total protein half-life in vivo [1] [h]	total protein half-life in vivo [2] [h]	total protein half-life in vivo [3] [h]	total protein half-life in vivo [4] [h]	total protein half-life in vivo [5] [h]	total protein half-life in vivo [6] [h]	total protein half-life in vivo [7] [h]	total protein half-life in vivo [8] [h]	total protein half-life in vivo [9] [h]	total protein half-life in vivo [10] [h]	total protein half-life in vivo [11] [h]	total protein half-life in vivo [12] [h]
MALIVEFICELPNGVHARPASHVETLCNTFSSQIEWHNLRTDRKGNAKSALALIGTDTLAGDNCQLLISGADEQEAHQRLSQWLRDEFPHCDAPLAEVKSDELEPLPVSLTNLNPQIIRARTVCSGSAGGILTPISSLDLNALGNLPAAKGVDAEQSALENGLTLVLKNIEFRLLDSDGATSAILEAHRSLAGDTSLREHLLAGVSAGLSCAEAIVASANHFCEEFSRSSSSYLQERALDVRDVCFQLLQQIYGEQRFPAPGKLTQPAICMADELTPSQFLELDKNHLKGLLLKSGGTTSHTVILARSFNIPTLVGVDIDALTPWQQQTIYIDGNAGAIVVEPGEAVARYYQQEARVQDALREQQRVWLTQQARTADGIRIEIAANIAHSVEAQAAFGNGAEGVGLFRTEMLYMDRTSAPGESELYNIFCQALESANGRSIIVRTMDIGGDKPVDYLNIPAEANPFLGYRAVRIYEEYASLFTTQLRSILRASAHGSLKIMIPMISSMEEILWVKEKLAEAKQQLRNEHIPFDEKIQLGIMLEVPSVMFIIDQCCEEIDFFSIGSNDLTQYLLAVDRDNAKVTRHYNSLNPAFLRALDYAVQAVHRQGKWIGLCGELGAKGSVLPLLVGLGLDELSMSAPSIPAAKARMAQLDSRECRKLLNQAMACRTSLEVEHLLAQFRMTQQDAPLVTAECITLESDWRSKEEVLKGMTDNLLLAGRCRYPRKLEADLWAREAVFSTGLGFSFAIPHSKSEHIEQSTISVARLQAPVRWGDDEAQFIIMLTLNKHAAGDQHMRIFSRLARRIMHEEFRNALVNAASADAIASLLQHELEL	2.7	7.46	–	–	–	–	–	–	–	–	–	–
MALLQISEPGLSAAPHQRRLAAGIDLGTTNSLVATVRSGQAETLADHEGRHLLPSVVHYQQQGHSVGYDARTNAALDTANTISSVKRLMGRSLADIQQRYPHLPYQFQASENGLPMIETAAGLLNPVRVSADILKALAARATEALAGELDGVVITVPAYFDDAQRQGTKDAARLAGLHVLRLLNEPTAAAIAYGLDSGQEGVIAVYDLGGGTFDISILRLSRGVFEVLATGGDSALGGDDFDHLLADYIREQAGIPDRSDNRVQRELLDAAIAAKIALSDADSVTVNVAGWQGEISREQFNELIAPLVKRTLLACRRALKDAGVEADEVLEVVMVGGSTRVPLVRERVGEFFGRPPLTSIDPDKVVAIGAAIQADILVGNKPDSEMLLLDVIPLSLGLETMGGLVEKVIPRNTTIPVARAQDFTTFKDGQTAMSIHVMQGERELVQDCRSLARFALRGIPALPAGGAHIRVTFQVDADGLLSVTAMEKSTGVEASIQVKPSYGLTDSEIASMIKDSMSYAEQDVKARMLAEQKVEAARVLESLHGALAADAALLSAAERQVIDDAAAHLSEVAQGDDVDAIEQAIKNVDKQTQDFAARRMDQSVRRALKGHSVDEV [P0A6Z1]	2.7 ± 0.2	7.07 ± 1.1	5.04 ± 0.78	4.05 ± 0.14	2.65 ± 0.14	3.22 ± 0.24	2.53 ± 0.028	4.48 ± 0.47	2.857 ± 0.016	3.54 ± 0.12	4.05 ± 0.31	6.96 ± 0.068
MAMETQDIIKRSATNSITPPSQVRDYKAEVAKLIDVSTCIGCKACQVACSEWNDIRDEVGHCVGVYDNPADLSAKSWTVMRFSETEQNGKLEWLIRKDGCMHCEDPGCLKACPSAGAIIQYANGIVDFQSENCIGCGYCIAGCPFNIPRLNKEDNRVYKCTLCVDRVSVGQEPACVKTCPTGAIHFGTKKEMLELAEQRVAKLKARGYEHAGVYNPEGVGGTHVMYVLHHADQPELYHGLPKDPKIDTSVSLWKGALKPLAAAGFIATFAGLIFHYIGIGPNKEVDDDEEDHHE [P0AAJ3]	–	–	–	4.35	> 8	–	–	–	3.95	–	6.22	–
MAMHLNENLDDNGEMHDINVTPFIDVMLVLLIIFMVAAPLATVDVKVNLPASTSTPQPRPEKPVYLSVKADNSMFIGNDPVTDETMITALNALTEGKKDTTIFFRADKTVDYETLMKVMDTLHQAGYLKIGLVGEETAKAK [P0ABV2]	1.34 ± 0.17	1.88 ± 0.74	2.68 ± 0.35	2.74 ± 0.56	–	–	0.61	0.847 ± 0.64	1.12	–	1.01	2.15
MAMYQNMLVVIDPNQDDQPALRRAVYLHQRIGGKIKAFLPIYDFSYEMTTLLSPDERTAMRQGVISQRTAWIHEQAKYYLNAGVPIEIKVVWHNRPFEAIIQEVISGGHDLVLKMAHQHDRLEAVIFTPTDWHLLRKCPSPVWMVKDQPWPEGGKALVAVNLASEEPYHNALNEKLVKETIELAEQVNHTEVHLVGAYPVTPINIAIELPEFDPSVYNDAIRGQHLLAMKALRQKFGINENMTHVEKGLPEEVIPDLAEHLQAGIVVLGTVGRTGISAAFLGNTAEQVIDHLRCDLLVIKPDQYQTPVELDDEEDD [P0AAC0]	2.97 ± 0.39	9.86 ± 0.44	4.78 ± 0.088	4.77 ± 0.46	4.73 ± 0.4	5.473 ± 0.017	4.47 ± 0.11	5.6 ± 0.071	5.01 ± 0.17	8.64 ± 0.4	5.56 ± 0.67	12.2 ± 0.15
MANLSGYNFAYLDEQTKRMIRRAILKAVAIPGYQVPFGGREMPMPYGWGTGGIQLTASVIGESDVLKVIDQGADDTTNAVSIRNFFKRVTGVNTTERTDDATVIQTRHRIPETPLTEDQIIIFQVPIPEPLRFIEPRETETRTMHALEEYGVMQVKLYEDIARFGHIATTYAYPVKVNGRYVMDPSPIPKFDNPKMDMMPALQLFGAGREKRIYAVPPFTRVESLDFDDHPFTVQQWDEPCAICGSTHSYLDEVVLDDAGNRMFVCSDTDYCRQQSEAKNQ	–	–	–	–	–	–	–	–	–	–	0.723 ± 0.41	1.37 ± 0.74
MANNTTGFTRIIKAAGYSWKGLRAAWINEAAFRQEGVAVLLAVVIACWLDVDAITRVLLISSVMLVMIVEILNSAIEAVVDRIGSEYHELSGRAKDMGSAAVLIAIIVAVITWCILLWSHFG [P0ABN1]	3.24 ± 0.045	13.3 ± 2.6	6.58 ± 0.097	6.7 ± 1.4	5.79 ± 0.99	6.03 ± 0.49	6.13 ± 0.91	6.21 ± 0.12	5.93 ± 0.34	13.7 ± 3.1	5.54 ± 0.21	11.3 ± 0.31
MANPEQLEEQREETRLIIEELLEDGSDPDALYTIEHHLSADDLETLEKAAVEAFKLGYEVTDPEELEVEDGDIVICCDILSECALNADLIDAQVEQLMTLAEKFDVEYDGWGTYFEDPNGEDGDDEDFVDEDDDGVRH [P0AF90]	2.08	8.63 ± 2.2	5.62 ± 0.39	4 ± 0.52	3.94 ± 0.18	5.36 ± 0.26	3.73 ± 0.12	5.51 ± 1.6	4.14	7.72 ± 1.9	2.61 ± 0.039	6.57 ± 0.075
